In US20250236679A1 (Chugai, published 2025):

T1: human DLL3 expressed on cells (human DLL3/BaF3) (human, UniProt Q9NYJ7 27-618)
T1 construct: Full-length human DLL3 on the membrane of transformed Ba/F3 cells; The ADCC assays also used NCI-H1184 small-cell lung cancer cells that express DLL3; also called Delta-like 3; NM_016941
T1 sequence: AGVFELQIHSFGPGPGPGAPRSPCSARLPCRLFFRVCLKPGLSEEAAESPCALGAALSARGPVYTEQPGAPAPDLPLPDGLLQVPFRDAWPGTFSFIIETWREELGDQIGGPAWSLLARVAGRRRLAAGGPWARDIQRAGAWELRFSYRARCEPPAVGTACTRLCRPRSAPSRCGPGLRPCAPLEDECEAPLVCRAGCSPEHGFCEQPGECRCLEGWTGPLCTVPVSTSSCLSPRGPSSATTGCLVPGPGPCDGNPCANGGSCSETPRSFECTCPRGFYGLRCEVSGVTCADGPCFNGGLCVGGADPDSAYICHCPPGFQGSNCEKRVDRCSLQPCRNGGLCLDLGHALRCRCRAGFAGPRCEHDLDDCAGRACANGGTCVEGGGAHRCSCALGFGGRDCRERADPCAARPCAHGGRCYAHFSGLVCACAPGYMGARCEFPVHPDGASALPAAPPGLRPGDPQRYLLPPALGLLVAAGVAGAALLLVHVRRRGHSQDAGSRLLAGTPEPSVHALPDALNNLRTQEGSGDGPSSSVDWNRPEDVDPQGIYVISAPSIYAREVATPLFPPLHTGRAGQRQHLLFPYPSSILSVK

T2: human DLL3-Fc (human)
T2 construct: also called soluble DLL3 protein
T2 chain: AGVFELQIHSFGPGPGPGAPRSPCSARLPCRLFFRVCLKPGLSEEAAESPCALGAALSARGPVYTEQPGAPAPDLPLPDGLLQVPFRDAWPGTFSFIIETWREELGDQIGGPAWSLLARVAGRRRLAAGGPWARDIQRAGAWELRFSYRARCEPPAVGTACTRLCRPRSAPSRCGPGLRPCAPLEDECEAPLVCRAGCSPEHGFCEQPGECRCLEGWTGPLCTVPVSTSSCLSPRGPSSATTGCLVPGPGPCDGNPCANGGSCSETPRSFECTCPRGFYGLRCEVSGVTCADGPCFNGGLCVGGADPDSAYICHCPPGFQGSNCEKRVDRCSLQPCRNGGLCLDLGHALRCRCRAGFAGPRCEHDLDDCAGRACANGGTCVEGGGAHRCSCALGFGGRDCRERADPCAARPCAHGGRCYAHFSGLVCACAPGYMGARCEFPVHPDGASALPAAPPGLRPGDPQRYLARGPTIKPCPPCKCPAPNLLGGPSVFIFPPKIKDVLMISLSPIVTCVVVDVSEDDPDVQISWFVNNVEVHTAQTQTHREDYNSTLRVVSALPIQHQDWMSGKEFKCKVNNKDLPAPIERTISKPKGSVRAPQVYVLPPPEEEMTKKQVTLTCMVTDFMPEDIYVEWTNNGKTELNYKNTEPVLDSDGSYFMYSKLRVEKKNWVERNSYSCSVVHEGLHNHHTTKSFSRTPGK

B1: DL301 human chimeric antibody (antibody, human IgG1, kappa)
heavy: not shown
light: DIKMTQSPSSMYASLGERVTITCKASQDINSYLIWFQQKPGKSPKTLIYRTNRLVDGVPSRFSGSGSGQDYSLTISSLEYGDMGIYYCLQYDEFPFTFGSGTKLEIKRTVAAPSVFIFPPSDEQLKSGTASVVCLLNNFYPREAKVQWKVDNALQSGNSQESVTEQDSKDSTYSLSSTLTLSKADYEKHKVYACEVTHQGLSSPVTKSFNRGEC
notes: Mouse variable regions with human IgG1 constant regions; also called chimeric antibody DL301; DL301 chimeric antibody
B2: DL309 human chimeric antibody (antibody, human IgG1, kappa)
heavy: not shown
light: DIVMTQSQKFMSTSVGDRVSVTCKASQNVGTNVAWYQQKPGQSPKALIYSASYRYSGVPDRFTGSGSGTDFTLTISNVQSEDLAEYFCQQYNNYPLTFGAGTKLELKRTVAAPSVFIFPPSDEQLKSGTASVVCLLNNFYPREAKVQWKVDNALQSGNSQESVTEQDSKDSTYSLSSTLTLSKADYEKHKVYACEVTHQGLSSPVTKSFNRGEC
notes: Mouse variable regions with human IgG1 constant regions; also called chimeric antibody DL309; DL309 chimeric antibody
B3: DL312 human chimeric antibody (antibody, human IgG1, kappa)
heavy: not shown
light: DIQMTQSPSSLSASLGERVSLTCRASQEISDYLSWLQQKPDGTIKRLIFAASTLDSGVPKRFSGSRSGSDFSLSISSLESEDFADYYCLQYASYPYTFGSGTKLEIKRTVAAPSVFIFPPSDEQLKSGTASVVCLLNNFYPREAKVQWKVDNALQSGNSQESVTEQDSKDSTYSLSSTLTLSKADYEKHKVYACEVTHQGLSSPVTKSFNRGEC
notes: Mouse variable regions with human IgG1 constant regions; also called chimeric antibody DL312; DL312 chimeric antibody

Molecular target: T1, human DLL3 expressed on cells (human …)
Assay: flow cytometry on human DLL3/BaF3 cells, chimeric antibody 1 µg/ml
Method: The chimeric antibody in the culture supernatant of COS-7 was confirmed to bind to the human DLL3 protein by flow cytometry and ELISA. The chimeric antibody concentration in the culture supernatant of COS-7 was calculated by sandwich ELISA. In this concentration calculation, a human chimeric antibody known for its concentration was used as a standard. The chimeric antibody (final concentration: 1 μg/ml) was added to human DLL3/BaF3 cells suspended in a FACS buffer (PBS containing 1% fetal bovine serum). After incubation at 4° C. for 30 minutes and washing, the cells were reacted with FITC-labeled anti-human antibodies (Beckman Coulter, Inc.), and the binding of the chimeric antibody was analyzed using a flow cytometer FACSCalibur. […] None of the chimeric antibodies bound to Ba/F3 cells, which were a parental line of the forced expressing cells. Human DLL3-Fc was immobilized on a Nunc immunoplate, and the binding of each chimeric antibody to the immobilized protein was analyzed. For detecting antigen-bound chimeric antibodies, the chimeric antibody was added thereto, and alkaline phosphatase-labeled anti-human antibodies (Biosource, AHI0305) and an alkaline phosphatase substrate Sigma 104 were then added in this order. The absorbance was determined. The DL301, DL309, and DL312 chimeric antibodies bound to human DLL3-Fc in a dose-dependent manner (FIG. 8(a)).
COS-7 cells were transfected with the DL306 chimeric antibody expression vector and allowed to transiently express the chimeric antibody. The chimeric antibody in the culture supernatant of COS-7 was confirmed to bind to the human DLL3 protein by flow cytometry. The chimeric antibody concentration in the culture supernatant of COS-7 was calculated by sandwich ELISA. In this concentration calculation, a human chimeric antibody known for its concentration was used as a standard. […] After incubation at 4° C. for 30 minutes and washing, the cells were reacted with FITC-labeled anti-human antibodies (Beckman Coulter, Inc.), and the binding of the chimeric antibody was analyzed using a flow cytometer FACSCalibur.

binding result | Binder
binds | B1
binds | B2
binds | B3

Molecular target: T2, human DLL3-Fc
Assay: ELISA, immobilized human DLL3-Fc
Method: The competition of a chimeric antibody and a mouse antibody for binding to the antigen molecule was analyzed by ELISA (FIG. 8 (b)). Human DLL3-Fc was added at 10 ng/well to a Nunc immunoplate and immobilized thereon. A mixture (final concentration: 50 ng/ml) of the chimeric antibody and the appropriately diluted mouse antibody was added to the DLL3-Fc protein-immobilized plate. The plate was incubated at room temperature for 1 hour and then washed. Alkaline phosphatase-labeled anti-human antibodies were added thereto and incubated. After the incubation, Sigma 104 was added thereto, and the absorbance was measured. The binding of the chimeric antibody to the antigen molecule competed with that of the original mouse monoclonal antibody thereto.

binding result | Binder
binds | B1
binds | B2
binds | B3
